Data published in US20230250154A1.

B1: Variant A2M, bait region SEQ ID NO 142, P01023 24-1474 (protein)
chain: SVSGKPQYMVLVPSLLHTETTEKGCVLLSYLNETVTVSASLESVRGNRSLFTDLEAENDVLHCVAFAVPKSSSNEEVMFLTVQVKGPTQEFKKRTTVMVKNEDSLVFVQTDKSIYKPGQTVKFRVVSMDENFHPLNELIPLVYIQDPKGNRIAQWQSFQLEGGLKQFSFPLSSEPFQGSYKVVVQKKSGGRTEHPFTVEEFVLPKFEVQVTVPKIITILEEEMNVSVCGLYTYGKPVPGHVTVSICRKYSDASDCHGEDSQAFCEKFSGQLNSHGCFYQQVKTKVFQLKRKEYEMKLHTEAQIQEEGTVVELTGRQSSEITRTITKLSFVKVDSHFRQGIPFFGQVRLVDGKGVPIPNKVIFIRGNEANYYSNATTDEHGLVQFSINTTNVMGTSLTVRVNYKDRSPCYGYQWVSEEHEEAHHTAYLVFSPSKSFVHLEPMSHELPCGHTQTVQAHYILNGGTLLGLKKLSFYYLIMAKGGIVRTGTHGLLVKQEDMKGHFSISIPVKSDIAPVARLLIYAVLPTGDVIGDSAKYDVENCLANKVDLSFSPSQSLPASHAHLRVTAAPQSVCALRAVDQSVLLMKPDAELSASSVYNLLPEKDLTGFPGPLNDQDDEDCINRHNVYINGITYTPVSSTNEKDMYSFLEDMGLKAFTNSKIRKPKMCPQLEQYEMHGPSELEGRGSIPENFFGVEGEGEGEGKEEEGLGSVEEPHTKLRKYFPETWIWDLVVVNSAGVAEVGVTVPDTITEWKAGAFCLSEDAGLGISSTASLRAFQPFFVELTMPYSVIRGEAFTLKATVLNYLPKCIRVSVQLEASPAFLAVPVEKEQAPHCICANGRQTVSWAVTPKSLGNVNFTVSAEALESQELCGTEVPSVPEHGRKDTVIKPLLVEPEGLEKETTFNSLLCPSGGEVSEELSLKLPPNVVEESARASVSVLGDILGSAMQNTQNLLQMPYGCGEQNMVLFAPNIYVLDYLNETQQLTPEIKSKAIGYLNTGYQRQLNYKHYDGSYSTFGERYGRNQGNTWLTAFVLKTFAQARAYIFIDEAHITQALIWLSQRQKDNGCFRSSGSLLNNAIKGGVEDEVTLSAYITIALLEIPLTVTHPVVRNALFCLESAWKTAQEGDHGSHVYTKALLAYAFALAGNQDKRKEVLKSLNEEAVKKDNSVHWERPQKPKAPVGHFYEPQAPSAEVEMTSYVLLAYLTAQPAPTSEDLTSATNIVKWITKQQNAQGGFSSTQDTVVALHALSKYGAATFTRTGKAAQVTIQSSGTFSSKFQVDNNNRLLLQQVSLPELPGEYSMKVTGEGCVYLQTSLKYNILPEKEEFPFALGVQTLPQTCDEPKAHTSFQISLSVSYTGSRSASNMAIVDVKMVSGFIPLKPTVKMLERSNHVSRTEVSSNHVLIYLDKVSNQTLSLFFTVLQDVPVRDLKPAIVKVYDYYETDEFAIAEYNAPCSKDLGNADYKDDDDKGASHHHHHH
B2: Variant A2M, bait region SEQ ID NO 143, P01023 24-1474 (protein)
chain: SVSGKPQYMVLVPSLLHTETTEKGCVLLSYLNETVTVSASLESVRGNRSLFTDLEAENDVLHCVAFAVPKSSSNEEVMFLTVQVKGPTQEFKKRTTVMVKNEDSLVFVQTDKSIYKPGQTVKFRVVSMDENFHPLNELIPLVYIQDPKGNRIAQWQSFQLEGGLKQFSFPLSSEPFQGSYKVVVQKKSGGRTEHPFTVEEFVLPKFEVQVTVPKIITILEEEMNVSVCGLYTYGKPVPGHVTVSICRKYSDASDCHGEDSQAFCEKFSGQLNSHGCFYQQVKTKVFQLKRKEYEMKLHTEAQIQEEGTVVELTGRQSSEITRTITKLSFVKVDSHFRQGIPFFGQVRLVDGKGVPIPNKVIFIRGNEANYYSNATTDEHGLVQFSINTTNVMGTSLTVRVNYKDRSPCYGYQWVSEEHEEAHHTAYLVFSPSKSFVHLEPMSHELPCGHTQTVQAHYILNGGTLLGLKKLSFYYLIMAKGGIVRTGTHGLLVKQEDMKGHFSISIPVKSDIAPVARLLIYAVLPTGDVIGDSAKYDVENCLANKVDLSFSPSQSLPASHAHLRVTAAPQSVCALRAVDQSVLLMKPDAELSASSVYNLLPEKDLTGFPGPLNDQDDEDCINRHNVYINGITYTPVSSTNEKDMYSFLEDMGLKAFTNSKIRKPKMCPQLEQYEMHGPIPENFFGVSEDLVVQIEGEGEGEGEAIPMSIPTEPHTKLRKYFPETWIWDLVVVNSAGVAEVGVTVPDTITEWKAGAFCLSEDAGLGISSTASLRAFQPFFVELTMPYSVIRGEAFTLKATVLNYLPKCIRVSVQLEASPAFLAVPVEKEQAPHCICANGRQTVSWAVTPKSLGNVNFTVSAEALESQELCGTEVPSVPEHGRKDTVIKPLLVEPEGLEKETTFNSLLCPSGGEVSEELSLKLPPNVVEESARASVSVLGDILGSAMQNTQNLLQMPYGCGEQNMVLFAPNIYVLDYLNETQQLTPEIKSKAIGYLNTGYQRQLNYKHYDGSYSTFGERYGRNQGNTWLTAFVLKTFAQARAYIFIDEAHITQALIWLSQRQKDNGCFRSSGSLLNNAIKGGVEDEVTLSAYITIALLEIPLTVTHPVVRNALFCLESAWKTAQEGDHGSHVYTKALLAYAFALAGNQDKRKEVLKSLNEEAVKKDNSVHWERPQKPKAPVGHFYEPQAPSAEVEMTSYVLLAYLTAQPAPTSEDLTSATNIVKWITKQQNAQGGFSSTQDTVVALHALSKYGAATFTRTGKAAQVTIQSSGTFSSKFQVDNNNRLLLQQVSLPELPGEYSMKVTGEGCVYLQTSLKYNILPEKEEFPFALGVQTLPQTCDEPKAHTSFQISLSVSYTGSRSASNMAIVDVKMVSGFIPLKPTVKMLERSNHVSRTEVSSNHVLIYLDKVSNQTLSLFFTVLQDVPVRDLKPAIVKVYDYYETDEFAIAEYNAPCSKDLGNADYKDDDDKGASHHHHHH
B3: Variant A2M, bait region SEQ ID NO 139, P01023 24-1474 (protein)
chain: SVSGKPQYMVLVPSLLHTETTEKGCVLLSYLNETVTVSASLESVRGNRSLFTDLEAENDVLHCVAFAVPKSSSNEEVMFLTVQVKGPTQEFKKRTTVMVKNEDSLVFVQTDKSIYKPGQTVKFRVVSMDENFHPLNELIPLVYIQDPKGNRIAQWQSFQLEGGLKQFSFPLSSEPFQGSYKVVVQKKSGGRTEHPFTVEEFVLPKFEVQVTVPKIITILEEEMNVSVCGLYTYGKPVPGHVTVSICRKYSDASDCHGEDSQAFCEKFSGQLNSHGCFYQQVKTKVFQLKRKEYEMKLHTEAQIQEEGTVVELTGRQSSEITRTITKLSFVKVDSHFRQGIPFFGQVRLVDGKGVPIPNKVIFIRGNEANYYSNATTDEHGLVQFSINTTNVMGTSLTVRVNYKDRSPCYGYQWVSEEHEEAHHTAYLVFSPSKSFVHLEPMSHELPCGHTQTVQAHYILNGGTLLGLKKLSFYYLIMAKGGIVRTGTHGLLVKQEDMKGHFSISIPVKSDIAPVARLLIYAVLPTGDVIGDSAKYDVENCLANKVDLSFSPSQSLPASHAHLRVTAAPQSVCALRAVDQSVLLMKPDAELSASSVYNLLPEKDLTGFPGPLNDQDDEDCINRHNVYINGITYTPVSSTNEKDMYSFLEDMGLKAFTNSKIRKPKMCPQLEQYEMHGPSEDLVVQIEGEGEGEGIPENFFGVEAIPMSIPTEPHTKLRKYFPETWIWDLVVVNSAGVAEVGVTVPDTITEWKAGAFCLSEDAGLGISSTASLRAFQPFFVELTMPYSVIRGEAFTLKATVLNYLPKCIRVSVQLEASPAFLAVPVEKEQAPHCICANGRQTVSWAVTPKSLGNVNFTVSAEALESQELCGTEVPSVPEHGRKDTVIKPLLVEPEGLEKETTFNSLLCPSGGEVSEELSLKLPPNVVEESARASVSVLGDILGSAMQNTQNLLQMPYGCGEQNMVLFAPNIYVLDYLNETQQLTPEIKSKAIGYLNTGYQRQLNYKHYDGSYSTFGERYGRNQGNTWLTAFVLKTFAQARAYIFIDEAHITQALIWLSQRQKDNGCFRSSGSLLNNAIKGGVEDEVTLSAYITIALLEIPLTVTHPVVRNALFCLESAWKTAQEGDHGSHVYTKALLAYAFALAGNQDKRKEVLKSLNEEAVKKDNSVHWERPQKPKAPVGHFYEPQAPSAEVEMTSYVLLAYLTAQPAPTSEDLTSATNIVKWITKQQNAQGGFSSTQDTVVALHALSKYGAATFTRTGKAAQVTIQSSGTFSSKFQVDNNNRLLLQQVSLPELPGEYSMKVTGEGCVYLQTSLKYNILPEKEEFPFALGVQTLPQTCDEPKAHTSFQISLSVSYTGSRSASNMAIVDVKMVSGFIPLKPTVKMLERSNHVSRTEVSSNHVLIYLDKVSNQTLSLFFTVLQDVPVRDLKPAIVKVYDYYETDEFAIAEYNAPCSKDLGNADYKDDDDKGASHHHHHH

These binders were tested against Protease Mixtures (assay: cell-based or functional assay).

Protease Inhibition (% of WT); Protease Mixtures, IGD Substrate | Binder
140 % of WT | B1
110 % of WT | B2
190 % of WT | B3
